# Laboratory results from US20150267232A1, “IN VIVO AND IN VITRO CARBENE INSERTION AND NITRENE TRANSFER REACTIONS CATALYZED BY HEME ENZYMES” (California Institute of Technology, priority 2012, published 2015).
# Assays:
# [1] = P450BM3 compilation plate screen (GC, cyclopropane peaks); assay type: biochemical; settings: for ee (cis): (R,S)-(S,R); for Absolute activity: sum of the area of the cyclopropane peaks over the area of the internal standard
# [2] = Small-scale anaerobic C—H amination with purified enzymes, azide 1; assay type: biochemical; settings: benzosultam 3
# Description: Activities are presented in TTN. […] Yields and enantioselectivies determined by HPLC analysis. * (S−R)/(S+R). nd=not determined.
# Enzymes used as purified catalysts were expressed as previously described (Lewis, J. C. et al., Proc. Natl. Acad. Sci. U.S.A. 106, 16550-16555 (2009)), and were purified by anion-exchange chromatography (for holoenzymes) or Ni-NTA chromatography (for isolated heme domains). Concentrations of P450 or P411 enzymes were determined as previously reported (Omura, T. & Sato, R., J. Biol. Chem. 239, 2370-2378 (1964); Vatsis, K. P. et al., J. Inorg. Biochem. 91, 542-553 (2002)). Small-scale reactions (400 μL) were conducted in 2 mL crimp vials containing degassed buffer (0.1 M potassium phosphate pH 8.0), enzyme (0.1-0.5% catalyst loading) and oxygen depletion system (10× stock solution containing 14,000 U/mL catalase, 1,000 U/mL glucose oxidase dissolved in 0.1 M KPi pH 8.0). Enzyme (P450 or P411) solution and oxygen depletion mixture were added to the vial with a small stir bar before crimp-sealing. […] Reactions were stirred at room temperature for 24 h under positive argon pressure.
# Small-scale reactions (400 μL) were conducted in 2 mL crimp vials (Agilent Technologies, San Diego, Calif.) containing buffer (0.1 M potassium phosphate pH 8.0), enzyme (0.1-0.5% catalyst loading) and oxygen depletion system (10× stock solution containing 14,000 U/mL catalase, 1,000 U/mL glucose oxidase dissolved in 0.1 M KPi pH 8.0). Enzyme (P450 or P411) solution and oxygen depletion mixture were added to the vial with a small stir bar before crimp-sealing. […] In the meantime, the headspace of the sealed 2 mL reaction vial with the P450 solution was made anaerobic by flushing argon over the protein solution (with no bubbling). The buffer/reductant/glucose solution (270 μL) was syringed into the reaction vial with continuous argon purge of the vial headspace. An arylsulfonyl azide solution in DMSO (10 μL, 80 mM) was added to the reaction vial via a glass syringe, and the reaction was left stirring for 24 h at room temperature under positive argon pressure. […] Reactions were quenched by adding 30 μL 3 M HCl under argon. To the vials were then added acetonitrile (430 uL) and internal standard (o-toluenesulfonamide 10 mM in 50% acetonitrile 50% water, 1 mM final concentration). This mixture was then transferred to a microcentrifuge tube, and centrifuged at 17,000×g for 10 minutes. A portion (20 μL) of the supernatant was then analyzed by HPLC. For LC-MS analysis, the quenched reaction mixture was extracted twice with ethyl acetate (2×350 μL), dried under a light argon stream and resuspended in 50% water-acetonitrile (100 μL). For chiral HPLC the reactions were extracted as above with ethyl acetate, dried and resuspended in DMSO (100 μL) and then C18 purified as described above. The C18 purified material was dried, and resuspended in acetonitrile, and then injected onto the chiral HPLC system for analysis. Sultam formation was quantified comparison of integrated peak areas of internal standard and sultam at 220 nm to a calibration curve made using synthetically produced sultam and internal standard.
# Purified enzymes were screened for activity in small scale reactions (400 μL) under anaerobic conditions as described above. Reactions were carried out using 0.5% mol of enzyme (10 μM) with respect to the triethylsulfonyl azide substrate 1 (2 mM). Standard reaction conditions described above were employed. Diethyl benzosultam product 3 (FIG. 18) was analyzed and quantified by reversed-phase HPLC (see above).
# Small-scale reactions (400 μL total volume) were set up and worked up. Control reactions were performed with both the holoenzyme (BM3 with covalently linked reductase domain) and the isolated heme domain. […] Reactions of the complete system with heme domain (CS heme) included 2 mM Na2S2O4 rather than NADPH unless otherwise indicated in the table. […]
# [3] = chiral β-CDX GC, P450BM3 variants
# [4] = diastereomeric excess = ([cis] − [trans])/([cis] + [trans]), P450BM3 variants
Molecule,ee (cis) ([1]; chimeric P450s),"ee (cis) [1, 3]","de ([1]; ([cis] − [trans])/([cis] + [trans]), chimeric P450s)","de [1, 4]",Absolute activity ([1]; P450BM3 variants),Absolute activity ([1]; chimeric P450s),"TTN ([2]; 0.1 mol % catalyst loading (2 μM), 2 mM azide 1, 2 mM NADPH)","% ee ([2]; 0.1 mol % catalyst loading, (S−R)/(S+R)) [%]"
"WT F87A: P450BM3 variant: F87A (protein, listed as Bacillus megaterium, cytochrome P450NADPH-P-450 reductase precursor, cytochrome P450 (BM3), CYP102A1) TIKEMPQPKTFGELKNLPLLNTDKPVQALMKIADELGEIFKFEAPGRVTRYLSSQRLIKEACDESRFDKNLSQALKFVRDFAGDGLATSWTHEKNWKKAHNILLPSFSQQAMKGYHAMMVDIAVQLVQKWERLNADEHIEVPEDMTRLTLDTIGLCGFNYRFNSFYRDQPHPFITSMVRALDEAMNKLQRANPDDPAYDENKRQFQEDIKVMNDLVDKIIADRKASGEQSDDLLTHMLNGKDPETGEPLDDENIRYQIITFLIAGHETTSGLLSFALYFLVKNPHVLQKAAEEAARVLVDPVPSYKQVKQLKYVGMVLNEALRLWPTAPAFSLYAKEDTVLGGEYPLEKGDELMVLIPQLHRDKTIWGDDVEEFRPERFENPSAIPQHAFKPFGNGQRACIGQQFALHEATLVLGMMLKHFDFEDHTNYELDIKETLTLKPEGFVVKAKSKKIPLGGIPSPSTEQSAKKVRKKAENAHNTPLLVLYGSNMGTAEGTARDLADIAMSKGFAPQVATLDSHAGNLPREGAVLIVTASYNGHPPDNAKQFVDWLDQASADEVKGVRYSVFGCGDKNWATTYQKVPAFIDETLAAKGAENIADRGEADASDDFEGTYEEWREHMWSDVAAYFNLDIENSEDNKSTLSLQFVDSAADMPLAKMHGAFSTNVVASKELQQPGSARSTRHLEIELPKEASYQEGDHLGVIPRNYEGIVNRVTARFGLDASQQIRLEAEEEKLAHLPLAKTVSVEELLQYVELQDPVTRTQLRAMAAKTVCPPHKVELEALLEKQAYKEQVLAKRLTMLELLEKYPACEMKFSEFIALLPSIRPRYYSISSSPRVDEKQASITVSVVSGEAWSGYGEYKGIASNYLAELQEGDTITCFISTPQSEFTLPKDPETPLIMVGPGTGVAPFRGFVQARKQLKEQGQSLGEAHLYFGCRSPHEDYLYQEELENAQSEGIITLHTAFSRMPNQPKTYVQHVMEQDGKKLIELLDQGAHFYICGDGSQMAPAVEATLMKSYADVHQVSEADARLWLQQLEEKGRYAKDVWAG",56,57,−28,−28,0.001704,0.001704,,
"WT T88L: P450BM3 variant: T88L (protein, listed as Bacillus megaterium, cytochrome P450NADPH-P-450 reductase precursor, cytochrome P450 (BM3), CYP102A1) TIKEMPQPKTFGELKNLPLLNTDKPVQALMKIADELGEIFKFEAPGRVTRYLSSQRLIKEACDESRFDKNLSQALKFVRDFAGDGLFLSWTHEKNWKKAHNILLPSFSQQAMKGYHAMMVDIAVQLVQKWERLNADEHIEVPEDMTRLTLDTIGLCGFNYRFNSFYRDQPHPFITSMVRALDEAMNKLQRANPDDPAYDENKRQFQEDIKVMNDLVDKIIADRKASGEQSDDLLTHMLNGKDPETGEPLDDENIRYQIITFLIAGHETTSGLLSFALYFLVKNPHVLQKAAEEAARVLVDPVPSYKQVKQLKYVGMVLNEALRLWPTAPAFSLYAKEDTVLGGEYPLEKGDELMVLIPQLHRDKTIWGDDVEEFRPERFENPSAIPQHAFKPFGNGQRACIGQQFALHEATLVLGMMLKHFDFEDHTNYELDIKETLTLKPEGFVVKAKSKKIPLGGIPSPSTEQSAKKVRKKAENAHNTPLLVLYGSNMGTAEGTARDLADIAMSKGFAPQVATLDSHAGNLPREGAVLIVTASYNGHPPDNAKQFVDWLDQASADEVKGVRYSVFGCGDKNWATTYQKVPAFIDETLAAKGAENIADRGEADASDDFEGTYEEWREHMWSDVAAYFNLDIENSEDNKSTLSLQFVDSAADMPLAKMHGAFSTNVVASKELQQPGSARSTRHLEIELPKEASYQEGDHLGVIPRNYEGIVNRVTARFGLDASQQIRLEAEEEKLAHLPLAKTVSVEELLQYVELQDPVTRTQLRAMAAKTVCPPHKVELEALLEKQAYKEQVLAKRLTMLELLEKYPACEMKFSEFIALLPSIRPRYYSISSSPRVDEKQASITVSVVSGEAWSGYGEYKGIASNYLAELQEGDTITCFISTPQSEFTLPKDPETPLIMVGPGTGVAPFRGFVQARKQLKEQGQSLGEAHLYFGCRSPHEDYLYQEELENAQSEGIITLHTAFSRMPNQPKTYVQHVMEQDGKKLIELLDQGAHFYICGDGSQMAPAVEATLMKSYADVHQVSEADARLWLQQLEEKGRYAKDVWAG",,23,,−78,0.004522,,,
"ABC-CIS-A268T: BM3-CIS + C400S + A268T (9-10A TS + F87V, C400S) (protein, listed as Bacillus megaterium, cytochrome P450NADPH-P-450 reductase precursor, cytochrome P450 (BM3), CYP102A1) TIKEMPQPKTFGELKNLPLLNTDKPVQALMKIADELGEIFKFEAPGRVTRYLSSQRLIKEACDESRFDKNLSQALKFARDFAGDGLVTSWTHEKNWKKAHNILLPSFSQQAMKGYHAMMVDIAVQLVQKWERLNADEHIEVSEDMTRLTLDTIGLCGFNYRFNSFYRDQPHPFIISMVRALDEVMNKLQRANPDDPAYDENKRQFQEDIKVMNDLVDKIIADRKARGEQSDDLLTQMLNGKDPETGEPLDDGNIRYQIITFLIAGHETTSGLLSFALYFLVKNPHVLQKVAEEAARVLVDPVPSYKQVKQLKYVGMVLNEALRLWPTAPAFSLYAKEDTVLGGEYPLEKGDEVMVLIPQLHRDKTVWGDDVEEFRPERFENPSAIPQHAFKPFGNGQRASIGQQFALHEATLVLGMMLKHFDFEDHTNYELDIKETLTLKPKGFVVKAKSKKIPLGGIPSPSTEQSAKKVRKKAENAHNTPLLVLYGSNMGTAEGTARDLADIAMSKGFAPQVATLDSHAGNLPREGAVLIVTASYNGHPPDNAKQFVDWLDQASADEVKGVRYSVFGCGDKNWATTYQKVPAFIDETLAAKGAENIADRGEADASDDFEGTYEEWREHMWSDVAAYFNLDIENSEDNKSTLSLQFVDSAADMPLAKMHGAFSTNVVASKELQQPGSARSTRHLEIELPKEASYQEGDHLGVIPRNYEGIVNRVTARFGLDASQQIRLEAEEEKLAHLPLAKTVSVEELLQYVELQDPVTRTQLRAMAAKTVCPPHKVELEALLEKQAYKEQVLAKRLTMLELLEKYPACEMKFSEFIALLPSIRPRYYSISSSPRVDEKQASITVSVVSGEAWSGYGEYKGIASNYLAELQEGDTITCFISTPQSEFTLPKDPETPLIMVGPGTGVAPFRGFVQARKQLKEQGQSLGEAHLYFGCRSPHEDYLYQEELENAQSEGIITLHTAFSRMPNQPKTYVQHVMEQDGKKLIELLDQGAHFYICGDGSQMAPAVEATLMKSYADVHQVSEADARLWLQQLEEKGRYAKDVWAG",,,,,,,82,47
